Holding throughout (format): cell-based, human
Assay [1] concerns β-catenin signaling. Description: 6xTCF-luciferase reporter assay in STF-293 cells with lung tumor cell-conditioned medium (LT). The following applies: Fc proteins 10 μg/ml, antibodies 40 μg/ml. As to the method:
To prepare cell suspensions, fresh human lung adenocarcinoma xenograft tumors (lung tumor #1 in Table 2) propagated in NOD/SCID mice were minced and digested in medium 199 (Invitrogen, Carlsbad, Calif.) containing 300 U/ml collagenase type 3 (Worthington, Lakewood, N.J.) and 200 U/ml DNase I (Worthington, Lakewood, N.J.) for 1 to 2 hours at 37° C. The lung tumor cells were filtered through a 40 μm nylon strainer (BD Falcon, Franklin Lakes, N.J.), and spun down at 82×g for 5 minutes. Red blood cells were lysed in ACK buffer (0.8% ammonium chloride, 0.1 mM EDTA, 10 mM sodium bicarbonate, […]), washed, and centrifuged at 150×g for 5 minutes in medium consisting of HBSS (Mediatech, Manassas, Va.), 25 mM HEPES buffer (Mediatech, Manassas, Va.) and 2% heat-inactivated fetal bovine serum (HI-FBS; Invitrogen, Carlsbad, Calif.). Dead cells and debris were removed by centrifugation on a cushion of HI-FBS at 82×g for 8 minutes. […]
STF-293 cells are stably transfected with a 6×TCF-luciferase reporter vector. […] The cells were incubated for 16 hours and luciferase activity was measured using Steady-Glo® Luciferase Assay System according to the manufacturer's instructions (Promega, Madison, Wis.). […]
(In general: In a reporter assay the amount or activity of a reporter protein is the signal.)

In assay [2] the test system is β-catenin signaling. Description: Co-culture 6xTCF-luciferase assay in STF-293 cells with lung (LU2, LU25) and ovarian (OV38) tumor cells and supernatants. To be noted: tumor cells LU2, LU25, OV38; 10 μg/ml. Here is the method:
Similar experiments were undertaken using co-culture assays using lung tumor cell-conditioned medium and ovarian tumor cell-conditioned medium. As described above, freshly processed tumor cells depleted of stroma cells were cultured overnight. Culture medium and cells were transferred to STF-293 cells with or without Wnt3a L-cell-conditioned medium. LGR5-Fc fusion protein, a FZD8-Fc fusion protein, or a control Fc fusion protein was added (10 μg/ml). The cells were incubated for 20 hours and luciferase activity was measured as described above.

In assay [3] the test system is β-catenin signaling. Kind of assay: TOPflash luciferase assay in HEK-293 cells: inhibition of RSPO activity by soluble LGR5. To be noted: LGR5-Fc 20 to 0.02 μg/ml; controls 20 μg/ml. Here is the method:
Conditioned medium from human lung tumor #1 cells was prepared as described in Example 3 and soluble LGR5-Fc and RSPO2-Fc were produced as described in Example 2.
HEK-293 cells were transfected with a 6×TCF-luciferase reporter vector (TOPflash, Millipore, Billerica, Mass.). After 24-48 hrs, the transfected cells were incubated with medium containing 25% lung tumor cell-conditioned medium plus 25% Wnt3a-L cell-conditioned medium or medium containing RSPO2 (1 Ong/ml) plus 25% Wnt3a-L cell-conditioned medium. Soluble LGR5 was added to the cells in 4-fold serially dilutions at 20 μg/ml to 0.02 μg/ml. Soluble Jag-Fc protein was used as a negative control at 20 μg/ml and FZD8-Fc protein was used as a positive control at 20 μg/ml. The cells were incubated for 16 hours and luciferase activity was measured using Steady-Glo® Luciferase Assay System according to the manufacturer's instructions (Promega, Madison, Wis.).

Assay [4] concerns β-catenin signaling. Kind of assay: Luciferase assay in STF-293 cells with LU2 cells, lung tumor cell-conditioned medium and Wnt3a-L cell-conditioned medium. To be noted: increasing concentrations, 50 to 0.0006 μg/ml. As to the method:
Conditioned medium from human lung tumor LU2 cells was prepared as described in Example 3 and soluble LGR5-Fc was produced as described in Example 2.
STF-293 cells were incubated with LU2 cells plus 25% lung tumor cell-conditioned medium plus 25% Wnt3a-L cell-conditioned medium. Antibody 130M23 and soluble LGR5-Fc were added to the cells in 5-fold serially dilutions from 50 μg/ml to 0.0006 μg/ml. An irrelevant monoclonal antibody, similarly diluted, and a control Fc fusion protein (50 ug/ml) were used as negative controls. The cells were incubated for 20 hours and luciferase activity was measured using Steady-Glo® Luciferase Assay System according to the manufacturer's instructions (Promega, Madison, Wis.).

B1: LGR5-Fc: soluble fusion protein: amino acids 22-564 of human LGR5 ligated to human Fc (protein)
chain: GSSPRSGVLLRGCPTHCHCEPDGRMLLRVDCSDLGLSELPSNLSVFTSYLDLSMNNISQLLPNPLPSLRFLEELRLAGNALTYIPKGAFTGLYSLKVLMLQNNQLRHVPTEALQNLRSLQSLRLDANHISYVPPSCFSGLHSLRHLWLDDNALTEIPVQAFRSLSALQAMTLALNKIHHIPDYAFGNLSSLVVLHLHNNRIHSLGKKCFDGLHSLETLDLNYNNLDEFPTAIRTLSNLKELGFHSNNIRSIPEKAFVGNPSLITIHFYDNPIQFVGRSAFQHLPELRTLTLNGASQITEFPDLTGTANLESLTLTGAQISSLPQTVCNQLPNLQVLDLSYNLLEDLPSFSVCQKLQKIDLRHNEIYEIKVDTFQQLLSLRSLNLAWNKIAIIHPNAFSTLPSLIKLDLSSNLLSSFPITGLHGLTHLKLTGNHALQSLISSENFPELKVIEMPYAYQCCAFGVCENAYKISNQWNKGDNSSMDDLHKKDAGMFQAQDERDLEDFLLDFEEDLKALHSVQCSPSPGPFKPCEHLLDGWLIRIGV
modifications: left off: a dimerising Fc or GST
notes: soluble fusion protein: amino acids 22-564 of human LGR5 ligated to human Fc
For the molecule B1, the “inhibition of the LT activity potentiating Wnt3a-induced β-catenin activity” value in the assay on β-catenin signaling [1] (LT plus Wnt3a L-cell-conditioned medium) is on record as “inhibited”. In the assay with β-catenin signaling [1] (absence of Wnt3a), the “inhibition of LT medium-induced β-catenin signaling” value is “reducing the response to almost control levels”. The “reduction of tumor-derived β-catenin activity” value in the assay on β-catenin signaling [2] is “strongly reduced”. For the same molecule, in the assay on β-catenin signaling [3], the “induction of luciferase activity by RSPO2-Fc plus Wnt3a-conditioned medium” value is given as “reduced”; the “induction of luciferase activity by lung tumor cell-conditioned medium and Wnt3a-conditioned medium” value was “reduced”. Besides, the “induction of luciferase activity by lung tumor cell-conditioned medium and Wnt3a-conditioned medium” value with β-catenin signaling [4] was “reduced”.
